From patent US20190330336A1 come the findings set out here.

For experiment [1], the target named is HIS-tagged (ACRO) or biotinylated recombinant human LAG3 protein (human) (UniProt P18627). The experiment can be described thus: FACS competition: antibody inhibits rhLAG3 binding to MHCII on DAUDI cells.
The target of experiment [2] is human LAG3-Fc, R&D Systems #2319-L3 (human) (UniProt P18627). The experiment can be described thus: SPR (Biacore), antibody captured on anti-Flag chip, human LAG3-Fc analyte, 25 C, 1:1 fit. For orientation: SPR reads the build-up and loss of mass on a sensor chip optically.

One may read the IC50 as the concentration that gives 50% inhibition. One may read the Kd as the concentration at which binding is half-saturated. A lower Kd goes with higher affinity. Usually koff stands for the first-order rate constant of dissociation. In general, kon refers to the second-order rate constant of association. The low end stands for slower complex formation, the high end for faster complex formation.

Sequence of human LAG3-Fc, R&D Systems #2319-L3 (human) (P18627 23-450): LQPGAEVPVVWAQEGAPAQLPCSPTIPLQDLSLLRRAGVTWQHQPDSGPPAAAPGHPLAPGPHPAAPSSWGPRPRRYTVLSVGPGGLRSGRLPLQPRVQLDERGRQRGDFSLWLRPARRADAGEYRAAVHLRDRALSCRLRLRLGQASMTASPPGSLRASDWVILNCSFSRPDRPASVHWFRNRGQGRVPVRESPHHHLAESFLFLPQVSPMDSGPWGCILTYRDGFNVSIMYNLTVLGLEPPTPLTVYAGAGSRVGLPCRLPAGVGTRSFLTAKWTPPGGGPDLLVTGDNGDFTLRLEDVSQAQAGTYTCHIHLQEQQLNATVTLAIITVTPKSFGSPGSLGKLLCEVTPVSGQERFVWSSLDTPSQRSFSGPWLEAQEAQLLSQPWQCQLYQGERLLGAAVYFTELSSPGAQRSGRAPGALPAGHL
Sequence of HIS-tagged (ACRO) or biotinylated recombinant human LAG3 protein (human) (P18627 23-450 limits assumed): as the sequence (P18627 23-450) above

B1: SRP1627-A02 (scFv, from a related filing, V domains shown, part only)
VH: QVQLVQSGAEVKKPGSSVKVSCKASGFNINDYFMHWVRQAPGQGLEWIARIDPWNGDTEYAPKFQGRVTITADESTSTAYMELSSLRSEDTAVYYCGMSDALDYWGQGTLVTVSS
VL: DVVMTQSPLSLPVTLGQPASISCKSSQSLLDSDGKTYLNWFQQRPGQSPRRLIYLVSKLDSGVPDRFSGSGSGTDFTLKISRVEAEDVGVYYCSHGNPVPQTFGQGTKVEIK
As for B1, the IC50 in experiment [1] came out at 1.7 nM. In experiment [2], this molecule displayed a Kd of 43.3 nM, a koff of 0.071 s⁻¹ and a kon of 1.64e+06 M⁻¹ s⁻¹.
